Test results from patent US20230212319A1, “NOVEL ANTIGEN BINDING DOMAINS AND SYNTHETIC ANTIGEN RECEPTORS INCORPORATING THE SAME” (University of Southern California, priority 2020, published 2023).

B1: SEQ ID NO: 22289: NKG2D-YA fused directly to TCRb constant chain without an Ig linker (protein)
chain: MALPVTALLLPLALLLHAARPACLFNQEVQIPLTESYCGPCPKNWICYKNNCYQFFDESKNWYESQASCMSQNASLLKVYSKEDQDLLKLVKSAHWMGLVHIPTNGSWQWEDGSILSPNLLTIIEMQKGDCALYASSFKGYIENCSTPNTYICMQRTVLEDLKNVFPPEVAVFEPSEAEISHTQKATLVCLATGFYPDHVELSWWVNGKEVHSGVCTDPQPLKEQPALNDSRYCLSSRLRVSATFWQNPRNHFRCQVQFYGLSENDEWTQDRAKPVTQIVSAEAWGRADCGFTSESYQQGVLSATILYEILLGKATLYAVLVSALVLMAMVKRKDSRGRAKRSGSGATNFSLLKQAGDVEENPGPTSMDWIWRILFLVGAATGAHSFEDLFNQEVQIPLTESYCGPCPKNWICYKNNCYQFFDESKNWYESQASCMSQNASLLKVYSKEDQDLLKLVKSAHWMGLVHIPTNGSWQWEDGSILSPNLLTIIEMQKGDCALYASSFKGFIENCSTPNTYICMQRTVTRIQNPDPAVYQLRDSKSSDKSVCLFTDFDSQTNVSQSKDSDVYITDKCVLDMRSMDFKSNSAVAWSNKSDFACANAFNNSIIPEDTFFPSPESSCDVKLVEKSFETDTNLNFQNLSVIGFRILLLKVAGFNLLMTLRLWSSRAKRSGSGVKQTLNFDLLKLAGDVESNPGPSRGHMTEYKPTVRLATRDDVPRAVRTLAAAFADYPATRHTVDPDRHIERVTELQELFLTRVGLDIGKVWVADDGAAVAVWTTPESVEAGAVFAEIGPRMAELSGSRLAAQQQMEGLLAPHRPKEPAWFLATVGVSPDHQGKGLGSAVVLPGVEAAERAGVPAFLETSAPRNLPFYERLGFTVTADVEVPEGPRTWCMTRKPGA
B2: 22042 (protein)
chain: MALPVTALLLPLALLLHAARPQLQLQESGPGLVKPSETLSLTCTVSGDSISSGDYYWGWIRQPPGKGLEWIGHIYYSGVTYYNPSLKSRVTISVDTSRNQFSLKLSSVTAADTAVYYCTREDSSNWRSRGQGTLVTVSSLEGSADCGFTSESYQQGVLSATILYEILLGKATLYAVLVSALVLMAMVKRKDSRGRAKRSGSGATNFSLLKQAGDVEENPGPTSMDWIWRILFLVGAATGAHSFEVQLVESGGGVVQPGRSLRLSCAASGFSFSGYGMHWVRQAPGKGLEWVAYISYDGSNKYYADSVKGRFTISRDNSKNTLYLQMNSLRAEDTAVYYCAKDPAWGLRLGESSSYDFDIWGQGTMVTVSSTRDKTHTCPPCPAIPEDTFFPSPESSCDVKLVEKSFETDTNLNFQNLSVIGFRILLLKVAGFNLLMTLRLWSSRAKRSGSGVKQTLNFDLLKLAGDVESNPGPSRGHMTEYKPTVRLATRDDVPRAVRTLAAAFADYPATRHTVDPDRHIERVTELQELFLTRVGLDIGKVWVADDGAAVAVWTTPESVEAGAVFAEIGPRMAELSGSRLAAQQQMEGLLAPHRPKEPAWFLATVGVSPDHQGKGLGSAVVLPGVEAAERAGVPAFLETSAPRNLPFYERLGFTVTADVEVPEGPRTWCMTRKPGA
B3: 22044 (protein)
chain: MALPVTALLLPLALLLHAARPQLQLQESGPGLVKPSETLSLTCTVSGDSISSGDYYWGWIRQPPGKGLEWIGHIYYSGVTYYNPSLKSRVTISVDTSRNQFSLKLSSVTAADTAVYYCTREDSSNWRSRGQGTLVTVSSLEGSMDPKDNCSKDANDTLLLQLTNTSAYYMYLLLLLKSVVYFAIITCCLLRRTAFCCNGEKSRAKRSGSGATNFSLLKQAGDVEENPGPTSMDWIWRILFLVGAATGAHSFEVQLVESGGGVVQPGRSLRLSCAASGFSFSGYGMHWVRQAPGKGLEWVAYISYDGSNKYYADSVKGRFTISRDNSKNTLYLQMNSLRAEDTAVYYCAKDPAWGLRLGESSSYDFDIWGQGTMVTVSSTRDKTHTCPPCPAIPEDTFFPSPESSCDVKLVEKSFETDTNLNFQNLSVIGFRILLLKVAGFNLLMTLRLWSSRAKRSGSGVKQTLNFDLLKLAGDVESNPGPSRGHMTEYKPTVRLATRDDVPRAVRTLAAAFADYPATRHTVDPDRHIERVTELQELFLTRVGLDIGKVWVADDGAAVAVWTTPESVEAGAVFAEIGPRMAELSGSRLAAQQQMEGLLAPHRPKEPAWFLATVGVSPDHQGKGLGSAVVLPGVEAAERAGVPAFLETSAPRNLPFYERLGFTVTADVEVPEGPRTWCMTRKPGA
B4: 22045 (protein)
chain: MALPVTALLLPLALLLHAARPQLQLQESGPGLVKPSETLSLTCTVSGDSISSGDYYWGWIRQPPGKGLEWIGHIYYSGVTYYNPSLKSRVTISVDTSRNQFSLKLSSVTAADTAVYYCTREDSSNWRSRGQGTLVTVSSLEGSPIKTDVITMDPKDNCSKDANDTLLLQLTNTSAYYMYLLLLLKSVVYFAIITCCLLRRTAFCCNGEKSRAKRSGSGATNFSLLKQAGDVEENPGPTSMDWIWRILFLVGAATGAHSFEVQLVESGGGVVQPGRSLRLSCAASGFSFSGYGMHWVRQAPGKGLEWVAYISYDGSNKYYADSVKGRFTISRDNSKNTLYLQMNSLRAEDTAVYYCAKDPAWGLRLGESSSYDFDIWGQGTMVTVSSTRDKTHTCPPCPAIPEDTFFPSPESSCDVKLVEKSFETDTNLNFQNLSVIGFRILLLKVAGFNLLMTLRLWSSRAKRSGSGVKQTLNFDLLKLAGDVESNPGPSRGHMTEYKPTVRLATRDDVPRAVRTLAAAFADYPATRHTVDPDRHIERVTELQELFLTRVGLDIGKVWVADDGAAVAVWTTPESVEAGAVFAEIGPRMAELSGSRLAAQQQMEGLLAPHRPKEPAWFLATVGVSPDHQGKGLGSAVVLPGVEAAERAGVPAFLETSAPRNLPFYERLGFTVTADVEVPEGPRTWCMTRKPGA
B5: 22053 (protein)
chain: MALPVTALLLPLALLLHAARPQLQLQESGPGLVKPSETLSLTCTVSGDSISSGDYYWGWIRQPPGKGLEWIGHIYYSGVTYYNPSLKSRVTISVDTSRNQFSLKLSSVTAADTAVYYCTREDSSNWRSRGQGTLVTVSSLEDKTHTCPPCPAPIKTDVITMDPKDNCSKDANDTLLLQLTNTSAYYMYLLLLLKSVVYFAIITCCLLRRTAFCCNGEKSRAKRSGSGATNFSLLKQAGDVEENPGPTSMDWIWRILFLVGAATGAHSFEVQLVESGGGVVQPGRSLRLSCAASGFSFSGYGMHWVRQAPGKGLEWVAYISYDGSNKYYADSVKGRFTISRDNSKNTLYLQMNSLRAEDTAVYYCAKDPAWGLRLGESSSYDFDIWGQGTMVTVSSTRDKTHTCPPCPAIPEDTFFPSPESSCDVKLVEKSFETDTNLNFQNLSVIGFRILLLKVAGFNLLMTLRLWSSRAKRSGSGVKQTLNFDLLKLAGDVESNPGPSRGHMTEYKPTVRLATRDDVPRAVRTLAAAFADYPATRHTVDPDRHIERVTELQELFLTRVGLDIGKVWVADDGAAVAVWTTPESVEAGAVFAEIGPRMAELSGSRLAAQQQMEGLLAPHRPKEPAWFLATVGVSPDHQGKGLGSAVVLPGVEAAERAGVPAFLETSAPRNLPFYERLGFTVTADVEVPEGPRTWCMTRKPGA

Tested on: LNCaP cells
Assay: JNG assay, co-culture with LNCaP cells
Format: cell-based
Details: for NFAT-GFP ASSAY: LNCaP: co-culture with LNCaP
Method: Cellular supernatant is collected and assayed for the induction of cytokines (e.g., IL2).
JNG (Jurkat cells expressing EGFP under an NFAT promoter) were infected with lentiviral vectors encoding different single chain and multi-chain SARs by spinfection in the presence of 8 µg/ml of Polybrene® (Sigma, Catalog no. H9268). The Jurkat-NFAT-GFP cells are engineered in such a way that the IL-2 promoter, which carries NFAT binding sites, is cloned upstream of the GFP gene. These cells have been used to study signaling via TCR and CAR. The different SARs were stably expressed in Jurkat NFAT-GFP cells by lentiviral mediated gene transfer, followed by selection with puromycin or blasticidin. No drug selection was used in case the construct lacked an antibiotic resistance gene. The SAR-expressing Jurkat-NFAT-GFP cells were cocultured with the target cells at E:T ratio of approximately 1:2 for approximately 4 hours to 18 hours. When the interaction between SIRs and their target antigen results in activation of the NFAT pathway, GFP expression is induced. […] GFP expression was monitored by FACS analysis. The Jurkat-NFAT-GFP (parental) cells were used as control. The structure of different constructs can be determined based on their names. For example, the construct CD8SP-CD19-hu-mROO5-1-vL-[hTCRa-C SDVP]-F-F2A-Spe-IgHSP-Apa-CD20-vHH-2HCD25-G4S-CDl9-hu-mROO5-1-vH-Mlu-[hTCRb-KACIAH]-F-P2A-PAC has the following modules from 5′ to 3′ direction: a CD8 signal peptide (CD8SP), the CD19 targeting hu-mROO5-1 vL fragment (CD19-hu-mROO5-1), Xho1 cloning site, human TCRa constant chain containing CSDVP mutations (hTCRa-CSDVP), Furine cleavage site (F), F2A ribosomal skip sequence (F2A), SpeI site, human IgH signal peptide (IgHSP), Apa I restriction enzyme site, camelid CD20-2HCD25-VHH module targeting CD20, BamHI restriction enzyme site, Glycinex4-serine linker (G4S), BstI restriction enzyme site, CD19-hu-mROO5-1-vH fragment targeting CD19, Mlu I restriction enzyme site, human TCRb constant chain containing KACIAH mutations ([hTCRb-KACIAH]), Furine cleavage site (F), P2A ribosomal skip sequence and Puromycin resistance gene (PAC). The sequence of the other constructs in the table can be similarly determined from their names and by referring to the different Tables of this disclosure that provide the names and SEQ ID NO of the different modules. Alternatively, the composition and modular architecture of the different SAR constructs can be determined from their sequences by bioinformatics tools, including using nucleic acid and amino acids homology searches. A SAR is considered positive in the assay in case the SAR expressing Jurkat-NFAT-GFP cells show greater % GFP positive cells when cultured with the target cell line as compared to parental Jurkat-NFAT-GFP cells. The signs +/-, +, 2+ etc. after the name of the cell lines indicate the relative degree of positivity on the Jurkat-NFAT-GFP assay as measured by the % GFP positive cells after culture of the SAR expressing Jurkat-NFAT-GFP cells with that cell line above the % GFP cells observed in parental Jurkat NFAT-GFP cells serving as controls. In general, the number +/-, +, 2+, 3+, 4+, 5+ refer to approximately 5%, 10%, 20%, 30%, 40% and 50% GFP positive cells. The % of GFP induction in the above assay is dependent not only the relative strength of the SAR but also, among other factors, on the relative level of expression of the SAR in the JNG cells and the relative level of expression of the target antigen in the target cell line. To control for the difference in gene transduction efficiency of the different SAR constructs, the experiment was conducted with JNG cells transduced with SAR constructs co-expressing a drug resistance gene (e.g., puromycin or PAC) followed by drug selection to generate a stable population of SAR-expressing cells. […]

| Molecule | GFP induction (LNCaP cells, only in the presence of SAR-adaptor PSMA-USC76-chVH-G4S-ULBP2-S3 (SEQ ID NO: 23114)) | NFAT-GFP ASSAY: LNCaP |
| --- | --- | --- |
| B1 | failed to show GFP induction |  |
| B2 |  | +/- (refer to approximately 5%, 10%, 20%, 30%, 40% and 50% GFP positive cells) |
| B3 |  | +/- (refer to approximately 5%, 10%, 20%, 30%, 40% and 50% GFP positive cells) |
| B4 |  | +/- (refer to approximately 5%, 10%, 20%, 30%, 40% and 50% GFP positive cells) |
| B5 |  | + (refer to approximately 5%, 10%, 20%, 30%, 40% and 50% GFP positive cells) |
